Laboratory results from paper PMC9620470 (Cell chemical biology, 2022).
Residue numbers refer to the chain shown, from its start. In names and notes the source's numbering stands. Each block holds one binder with its values, some of them ahead of it.

Molecular target: EPHA4-Flag protein purified from transfected 293FT cells (human, UniProt P54764 20-986)
Experiment: pull-down

Sequence of EPHA4-Flag protein purified from transfected 293FT cells (P54764 20-986): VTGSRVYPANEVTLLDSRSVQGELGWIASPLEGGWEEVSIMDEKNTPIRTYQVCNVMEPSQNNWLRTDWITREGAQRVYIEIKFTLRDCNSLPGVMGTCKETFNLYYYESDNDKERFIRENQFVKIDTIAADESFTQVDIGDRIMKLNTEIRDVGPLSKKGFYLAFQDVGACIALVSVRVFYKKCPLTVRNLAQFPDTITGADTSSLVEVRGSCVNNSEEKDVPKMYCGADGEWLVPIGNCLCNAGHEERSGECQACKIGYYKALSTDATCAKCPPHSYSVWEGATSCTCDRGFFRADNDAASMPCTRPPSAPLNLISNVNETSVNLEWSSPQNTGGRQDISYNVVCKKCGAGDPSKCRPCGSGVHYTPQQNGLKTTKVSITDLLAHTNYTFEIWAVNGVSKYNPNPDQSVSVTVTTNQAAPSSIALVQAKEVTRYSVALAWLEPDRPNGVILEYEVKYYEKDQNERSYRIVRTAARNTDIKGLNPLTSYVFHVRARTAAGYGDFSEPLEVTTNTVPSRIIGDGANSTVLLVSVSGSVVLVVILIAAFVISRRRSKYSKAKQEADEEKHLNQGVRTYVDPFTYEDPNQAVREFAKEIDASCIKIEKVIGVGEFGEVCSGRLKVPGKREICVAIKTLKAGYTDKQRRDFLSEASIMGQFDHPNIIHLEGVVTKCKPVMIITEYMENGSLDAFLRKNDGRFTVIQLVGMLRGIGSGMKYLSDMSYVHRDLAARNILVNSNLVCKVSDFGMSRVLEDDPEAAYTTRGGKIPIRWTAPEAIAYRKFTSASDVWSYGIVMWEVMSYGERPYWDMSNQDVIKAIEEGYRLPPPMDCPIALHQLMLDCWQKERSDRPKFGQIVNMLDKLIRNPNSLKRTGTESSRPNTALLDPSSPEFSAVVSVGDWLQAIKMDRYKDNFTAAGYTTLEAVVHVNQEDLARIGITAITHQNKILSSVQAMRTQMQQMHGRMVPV

binding result: binds
B1: GST-GMPR, bacterially purified (enzyme, human)
chain: MPRIDADLKLDFKDVLLRPKRSSLKSRAEVDLERTFTFRNSKQTYSGIPIIVANMDTVGTFEMAAVMSQHSMFTAIHKHYSLDDWKLFATNHPECLQNVAVSSGSGQNDLEKMTSILEAVPQVKFICLDVANGYSEHFVEFVKLVRAKFPEHTIMAGNVVTGEMVEELILSGADIIKVGVGPGSVCTTRTKTGVGYPQLSAVIECADSAHGLKGHIISDGGCTCPGDVAKAFGAGADFVMLGGMFSGHTECAGEVFERNGRKLKLFYGMSSDTAMNKHAGGVAEYRASEGKTVEVPYKGDVENTILDILGGLRSTCTYVGAAKLKELSRRATFIRVTQQHNTVFS

binding result: binds
B2: GST-GMPR^Y267F, bacterially purified (enzyme, human)
chain: B1 chain with Y267F
